Laboratory results from the supplement of paper PMC10567573.

B1: PTPLAD1 (parent)
chain: YINFRHLYKQRRRRYGQKKKKIH
B2: CDC25A (parent)
chain: KKFRTKSRTWAGEKSKREMYSRLK

Variants of: B1
Test: protein stability index of a GFP-peptide fusion (GPS, HEK-293T) (PSI 1-6); higher = more stable
Conditions: c terminus: native
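Also: lentivirally expressed fusions sorted by FACS into six bins by GFP to DsRed ratio, PSI derived from sequencing read proportions per bin multiplied by bin number.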

Compared with YINFRHLYKQRRRRYGQKKKKEH [I22E], YINFRHLYKQRRRRYGQKKKKQH [I22Q] is lower in protein stability index: 2.66 for the first, 2.44 for the second.

Going from YINFRHLYKQRRRRYGQKKKKRH [I22R] to YINFRHLYKQRRRRYGQKKKKMH [I22M], the protein stability index rises from 1.81 to 2.23.

Going from YINFRHLYKQRRRRYGQKKKKHH [I22H] to YINFRHLYKQRRRRYGQKKKKSH [I22S], the protein stability index rises from 2.13 to 2.33.

Compared with YINFRHLYKQRRRRYGQKKKKAH [I22A], YINFRHLYKQRRRRYGQKKKKCH [I22C] is lower in protein stability index: 2.02 for the first, 1.86 for the second.

Compared with YINFRHLYKQRRRRYGQKKKKTH [I22T], YINFRHLYKQRRRRYGQKKKKDH [I22D] is higher in protein stability index: 2.1 for the first, 2.56 for the second.

First: YINFRHLYKQRRRRYGQKKKKLH [I22L]
Second: YINFRHLYKQRRRRYGQKKKKYH [I22Y]
The protein stability index of the first is higher: 2.67 for the first, 2.08 for the second.

Compared with YINFRHLYKQRRRRYGQKKKKWH [I22W], YINFRHLYKQRRRRYGQKKKKFH [I22F] is lower in protein stability index: 2.22 for the first, 1.72 for the second.

First: YINFRHLYKQRRRRYGQKKKKPH [I22P]
Second: YINFRHLYKQRRRRYGQKKKKNH [I22N]
The protein stability index of the first is lower: 1.86 for the first, 1.9 for the second.

Going from YINFRHLYKQRRRRYGQKKKKVH [I22V] to YINFRHLYKQRRRRYGQKKKKGH [I22G], the protein stability index rises from 1.41 to 1.5.

Compared with YINFRHLYKQRRRRYGQKTKKIH [K19T], YINFRHLYKQRRRRYGQKPKKIH [K19P] is lower in protein stability index: 1.96 for the first, 1.95 for the second.

Compared with YINFRHLYKQRRRRYGQKLKKIH [K19L], YINFRHLYKQRRRRYGQKYKKIH [K19Y] is lower in protein stability index: 3.09 for the first, 2.12 for the second.

First: YINFRHLYKQRRRRYGQKMKKIH [K19M]
Second: YINFRHLYKQRRRRYGQKQKKIH [K19Q]
The protein stability index of the first is higher: 2.31 for the first, 2.09 for the second.

First: YINFRHLYKQRRRRYGQKGKKIH [K19G]
Second: YINFRHLYKQRRRRYGQKFKKIH [K19F]
The protein stability index of the first is lower: 2.15 for the first, 2.25 for the second.

Compared with YINFRHLYKQRRRRYGQKNKKIH [K19N], YINFRHLYKQRRRRYGQKRKKIH [K19R] is higher in protein stability index: 1.62 for the first, 1.91 for the second.

Going from YINFRHLYKQRRRRYGQKHKKIH [K19H] to YINFRHLYKQRRRRYGQKSKKIH [K19S], the protein stability index falls from 2.49 to 2.07.

First: YINFRHLYKQRRRRYGQKEKKIH [K19E]
Second: YINFRHLYKQRRRRYGQKIKKIH [K19I]
The protein stability index of the first is lower: 1.57 for the first, 2.54 for the second.

First: YINFRHLYKQRRRRYGQKWKKIH [K19W]
Second: YINFRHLYKQRRRRYGQKKKNIH [K21N]
The protein stability index of the first is lower: 2.02 for the first, 2.27 for the second.

Compared with YINFRHLYKQRRRRYGQKKKRIH [K21R], YINFRHLYKQRRRRYGQKKKSIH [K21S] is lower in protein stability index: 2.49 for the first, 2.33 for the second.

First: YINFRHLYKQRRRRYGQKKKPIH [K21P]
Second: YINFRHLYKQRRRRYGQKKKWIH [K21W]
The protein stability index of the first is lower: 1.99 for the first, 2.37 for the second.

First: YINFRHLYKQRRRRYGQKKKFIH [K21F]
Second: YINFRHLYKQRRRRYGQKKKGIH [K21G]
The protein stability index of the first is lower: 2.76 for the first, 2.96 for the second.

Going from YINFRHLYKQRRRRYGQKKKDIH [K21D] to YINFRHLYKQRRRRYGQKKKQIH [K21Q], the protein stability index rises from 1.33 to 1.39.

First: YINFRHLYKQRRRRYGQKKKCIH [K21C]
Second: YINFRHLYKQRRRRYGQKKKHIH [K21H]
The protein stability index of the first is higher: 2.5 for the first, 1.94 for the second.

Going from YINFRHLYKQRRRRYGQKKKVIH [K21V] to YINFRHLYKQRRRRYGQKKKMIH [K21M], the protein stability index rises from 1.6 to 2.3.

Going from YINFRHLYKQRRRRYGQKKKTIH [K21T] to YINFRHLYKQRRRRYGQKKKLIH [K21L], the protein stability index falls from 2.7 to 1.92.

Compared with YINFRHLYKQRRRRYGQKKKYIH [K21Y], YINFRHLYKQRRRRYGQKKKIIH [K21I] is higher in protein stability index: 1.35 for the first, 2.14 for the second.

Going from YINFRHLYKQRRRRYGQKKKKIK [H23K] to YINFRHLYKQRRRRYGQKKKKIC [H23C], the protein stability index falls from 1.58 to 1.05.

First: YINFRHLYKQRRRRYGQKKKKIT [H23T]
Second: YINFRHLYKQRRRRYGQKKKKIE [H23E]
The protein stability index of the first is higher: 3.73 for the first, 1.04 for the second.

Going from YINFRHLYKQRRRRYGQKKKKIF [H23F] to YINFRHLYKQRRRRYGQKKKKIV [H23V], the protein stability index rises from 1.11 to 2.58.

First: YINFRHLYKQRRRRYGQKKKKID [H23D]
Second: YINFRHLYKQRRRRYGQKKKKIW [H23W]
The protein stability index of the first is lower: 2.09 for the first, 2.25 for the second.

Compared with YINFRHLYKQRRRRYGQKKKKIS [H23S], YINFRHLYKQRRRRYGQKKKKIP [H23P] is higher in protein stability index: 1.48 for the first, 2.07 for the second.

Going from YINFRHLYKQRRRRYGQKKPKIH [K20P] to YINFRHLYKQRRRRYGQKKRKIH [K20R], the protein stability index falls from 2 to 1.82.

Compared with YINFRHLYKQRRRRYGQKKIKIH [K20I], YINFRHLYKQRRRRYGQKKHKIH [K20H] is lower in protein stability index: 2.92 for the first, 2.35 for the second.

Compared with YINFRHLYKQRRRRYGQKKQKIH [K20Q], YINFRHLYKQRRRRYGQKKDKIH [K20D] is higher in protein stability index: 1.46 for the first, 3.01 for the second.

First: YINFRHLYKQRRRRYGQKKTKIH [K20T]
Second: YINFRHLYKQRRRRYGQKKSKIH [K20S]
The protein stability index of the first is higher: 1.99 for the first, 1.69 for the second.

Compared with YINFRHLYKQRRRRYGQKKAKIH [K20A], YINFRHLYKQRRRRYGQKKYKIH [K20Y] is higher in protein stability index: 2.05 for the first, 3.24 for the second.

Compared with YINFRHLYKQRRRRYGQKKCKIH [K20C], YINFRHLYKQRRRRYGQKKGKIH [K20G] is higher in protein stability index: 1.83 for the first, 2.77 for the second.

Compared with YINFRHLYKQRRRRYGQKKNKIH [K20N], YINFRHLYKQRRRRYGQKKWKIH [K20W] is higher in protein stability index: 1.89 for the first, 1.91 for the second.

First: YINFRHLYKQRRRRYGQKKFKIH [K20F]
Second: YINFRHLYKQRRRRYGQKKEKIH [K20E]
The protein stability index of the first is higher: 1.71 for the first, 1.66 for the second.

YINFRHLYKQRRRRYGQKKMKIH [K20M] gave a protein stability index of 1.88.

Variants of: B2
Test: as above
Conditions: c terminus: a fixed tail appended

Compared with VKFRTKSRTWAGEKSKREMYSRLK [K1V], AKFRTKSRTWAGEKSKREMYSRLK [K1A] is higher in protein stability index: 2.65 for the first, 3.59 for the second.

Compared with TKFRTKSRTWAGEKSKREMYSRLK [K1T], NKFRTKSRTWAGEKSKREMYSRLK [K1N] is lower in protein stability index: 4.1 for the first, 2.7 for the second.

Compared with DKFRTKSRTWAGEKSKREMYSRLK [K1D], YKFRTKSRTWAGEKSKREMYSRLK [K1Y] is lower in protein stability index: 3.83 for the first, 2.71 for the second.

Compared with RKFRTKSRTWAGEKSKREMYSRLK [K1R], PKFRTKSRTWAGEKSKREMYSRLK [K1P] is higher in protein stability index: 3.04 for the first, 3.25 for the second.

Going from FKFRTKSRTWAGEKSKREMYSRLK [K1F] to QKFRTKSRTWAGEKSKREMYSRLK [K1Q], the protein stability index rises from 2.37 to 3.35.

Going from WKFRTKSRTWAGEKSKREMYSRLK [K1W] to EKFRTKSRTWAGEKSKREMYSRLK [K1E], the protein stability index rises from 2.37 to 3.74.

First: IKFRTKSRTWAGEKSKREMYSRLK [K1I]
Second: SKFRTKSRTWAGEKSKREMYSRLK [K1S]
The protein stability index of the first is lower: 1.89 for the first, 3.22 for the second.

Going from LKFRTKSRTWAGEKSKREMYSRLK [K1L] to KHFRTKSRTWAGEKSKREMYSRLK [K2H], the protein stability index falls from 1.95 to 1.93.

Going from KCFRTKSRTWAGEKSKREMYSRLK [K2C] to KGFRTKSRTWAGEKSKREMYSRLK [K2G], the protein stability index rises from 2.38 to 4.12.

Compared with KEFRTKSRTWAGEKSKREMYSRLK [K2E], KDFRTKSRTWAGEKSKREMYSRLK [K2D] is lower in protein stability index: 3.27 for the first, 3.22 for the second.
